The sequences below were run on Escherichia coli TOP10 (assay: shrunken log2 fold change of peptide-encoding DNA abundance (4.5 h post-induction vs induction); higher = less antimicrobial activity (less host growth inhibition)). Conditions: time post-induction: 4.5 h; library: site-saturation at positions 5, 18, 19, 20.
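Further: peptides expressed intracellularly from a pBAD plasmid library in pooled LB shake-flask culture, induced with 0.3% L-arabinose, DNA abundance read by NGS, three biological replicates, DESeq2 with apeglm shrinkage.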

RRIRKRPPRLPRPRPRPNEFPRP and RRIRVRPPRLPRPRPRPFYDPRP are within 0.2 log units of each other in “shrunken log2 fold change” value: -0.042 for the first, -0.0104 for the second.

RRIRFRPPRLPRPRPRPCYGPRP and RRIRKRPPRLPRPRPRPLQEPRP are within 0.2 log units of each other in “shrunken log2 fold change” value: -0.0414 for the first, 0.0634 for the second.

First: RRIRQRPPRLPRPRPRPEINPRP
Second: RRIRGRPPRLPRPRPRPQTDPRP
The “shrunken log2 fold change” value of the first is lower: -0.15 for the first, 0.381 for the second.

Going from RRIRNRPPRLPRPRPRPITYPRP to RRIRGRPPRLPRPRPRPMDAPRP, the “shrunken log2 fold change” value rises from -1.09 to 0.322.

RRIRFRPPRLPRPRPRPMDYPRP and RRIRARPPRLPRPRPRPWTYPRP are within 0.2 log units of each other in “shrunken log2 fold change” value: -0.00172 for the first, 0.0209 for the second.

RRIRRRPPRLPRPRPRPYAYPRP and RRIRMRPPRLPRPRPRPNLYPRP are within 0.2 log units of each other in “shrunken log2 fold change” value: -0.189 for the first, -0.00588 for the second.

RRIRMRPPRLPRPRPRPGHSPRP and RRIRLRPPRLPRPRPRPWEDPRP are within 0.2 log units of each other in “shrunken log2 fold change” value: 0.182 for the first, 0.0824 for the second.

First: RRIRDRPPRLPRPRPRPEAAPRP
Second: RRIRPRPPRLPRPRPRPQFEPRP
The “shrunken log2 fold change” value of the first is higher: 1.84 for the first, 0.0184 for the second.

RRIRGRPPRLPRPRPRPVKTPRP and RRIRHRPPRLPRPRPRPAVAPRP are within 0.2 log units of each other in “shrunken log2 fold change” value: 0.0324 for the first, 0.117 for the second.

RRIRTRPPRLPRPRPRPYEPPRP and RRIRIRPPRLPRPRPRPEVHPRP are within 0.2 log units of each other in “shrunken log2 fold change” value: -0.18 for the first, -0.102 for the second.

RRIRLRPPRLPRPRPRPQFCPRP and RRIRTRPPRLPRPRPRPSPTPRP are within 0.2 log units of each other in “shrunken log2 fold change” value: -0.137 for the first, 0.0477 for the second.

RRIRVRPPRLPRPRPRPDCGPRP and RRIRKRPPRLPRPRPRPSKIPRP are within 0.2 log units of each other in “shrunken log2 fold change” value: -0.0382 for the first, 0.154 for the second.

RRIRRRPPRLPRPRPRPWCTPRP and RRIRTRPPRLPRPRPRPMAFPRP are within 0.2 log units of each other in “shrunken log2 fold change” value: -0.0123 for the first, -0.0075 for the second.

Compared with RRIRQRPPRLPRPRPRPLFWPRP, RRIRLRPPRLPRPRPRPHCKPRP is lower in “shrunken log2 fold change” value: -0.23 for the first, -0.708 for the second.

Going from RRIRWRPPRLPRPRPRPSLSPRP to RRIRRRPPRLPRPRPRPHHMPRP, the “shrunken log2 fold change” value falls from 1.36 to -0.217.

First: RRIRYRPPRLPRPRPRPPIVPRP
Second: RRIRHRPPRLPRPRPRPLIGPRP
The “shrunken log2 fold change” value of the first is lower: -0.756 for the first, -0.155 for the second.

Going from RRIRMRPPRLPRPRPRPPFNPRP to RRIRGRPPRLPRPRPRPFPPPRP, the “shrunken log2 fold change” value rises from 0.175 to 0.378.

RRIRWRPPRLPRPRPRPQSTPRP and RRIRPRPPRLPRPRPRPQVQPRP are within 0.2 log units of each other in “shrunken log2 fold change” value: 0.02 for the first, -0.148 for the second.

Going from RRIRTRPPRLPRPRPRPMFCPRP to RRIRLRPPRLPRPRPRPCYMPRP, the “shrunken log2 fold change” value rises from -0.628 to -0.308.

RRIRFRPPRLPRPRPRPMVLPRP and RRIRARPPRLPRPRPRPNGRPRP are within 0.2 log units of each other in “shrunken log2 fold change” value: -0.0723 for the first, -0.11 for the second.

Going from RRIRQRPPRLPRPRPRPPQDPRP to RRIRQRPPRLPRPRPRPKPMPRP, the “shrunken log2 fold change” value falls from 1.1 to 0.382.

RRIRWRPPRLPRPRPRPQGKPRP and RRIRHRPPRLPRPRPRPWGDPRP are within 0.2 log units of each other in “shrunken log2 fold change” value: 0.127 for the first, 0.0821 for the second.

Going from RRIRTRPPRLPRPRPRPIWEPRP to RRIRARPPRLPRPRPRPAQWPRP, the “shrunken log2 fold change” value rises from -0.178 to 0.252.

First: RRIRMRPPRLPRPRPRPYMVPRP
Second: RRIRCRPPRLPRPRPRPENIPRP
The “shrunken log2 fold change” value of the first is higher: -0.0313 for the first, -1.32 for the second.

RRIRVRPPRLPRPRPRPHRKPRP and RRIRFRPPRLPRPRPRPFRNPRP are within 0.2 log units of each other in “shrunken log2 fold change” value: 0.164 for the first, 0.0579 for the second.

First: RRIRWRPPRLPRPRPRPLPRPRP
Second: RRIRGRPPRLPRPRPRPGYRPRP
The “shrunken log2 fold change” value of the first is higher: 0.534 for the first, 0.189 for the second.

Going from RRIRSRPPRLPRPRPRPFNPPRP to RRIRDRPPRLPRPRPRPAGNPRP, the “shrunken log2 fold change” value rises from -0.28 to 0.0407.

Going from RRIRKRPPRLPRPRPRPTIWPRP to RRIRHRPPRLPRPRPRPRGSPRP, the “shrunken log2 fold change” value falls from 0.319 to -0.00481.

Going from RRIRLRPPRLPRPRPRPPETPRP to RRIRHRPPRLPRPRPRPKYKPRP, the “shrunken log2 fold change” value falls from 0.0221 to -0.679.

RRIRERPPRLPRPRPRPDRDPRP and RRIRARPPRLPRPRPRPGESPRP are within 0.2 log units of each other in “shrunken log2 fold change” value: -0.0369 for the first, 0.014 for the second.
